Measurements from patent US20260001928A1 (CORTERIA PHARMACEUTICALS, priority 2022, published 2026).
*1 amine or outer side, *2 acyl side, *3 side chain or, on linkers, in order; H or OH if unused. Where no end group is shown, it is not given here. Side-chain parts run from the residue outwards. [ ]: non-standard residue; d: D form. The star is where a group is joined. C16 diacid = O=C(O)CCCCCCCCCCCCCCC(=O)*; γGlu = O=C(O)[C@H](CCC(=O)[*:2])N[*:1]; NMeI = CC[C@H](C)[C@H](NC)C(=O)O; NMeV = CN[C@H](C(=O)O)C(C)C; Decanoyl = CCCCCCCCCC(=O)*; Api = NC1(C(=O)O)CCNCC1; Hexanoyl = CCCCCC(=O)*; Aib = CC(C)(N)C(=O)O

T1: CRF1R receptor (UniProt P34998 24-415, limits assumed)
T1 sequence (looked up): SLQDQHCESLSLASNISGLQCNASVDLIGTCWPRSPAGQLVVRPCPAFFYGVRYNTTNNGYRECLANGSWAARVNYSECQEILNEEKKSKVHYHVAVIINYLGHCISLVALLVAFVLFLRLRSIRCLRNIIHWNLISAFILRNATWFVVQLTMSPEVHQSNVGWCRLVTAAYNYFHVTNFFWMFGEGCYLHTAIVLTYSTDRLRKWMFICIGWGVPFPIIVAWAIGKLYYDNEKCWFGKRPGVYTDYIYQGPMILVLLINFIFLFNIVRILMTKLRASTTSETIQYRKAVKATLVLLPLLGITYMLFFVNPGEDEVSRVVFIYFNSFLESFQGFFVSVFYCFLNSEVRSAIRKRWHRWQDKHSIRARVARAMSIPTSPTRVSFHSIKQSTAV


Columns and labels:
[1] = biological target: T1, CRF1R receptor; assay: cell-based or functional assay
[2] = biological target: human corticotropin-releasing factor 2a (CRF2a receptor) (human), Q13324; assay: cell-based or functional assay
Chain of human corticotropin-releasing factor 2a (CRF2a receptor) (human), Q13324 (Q13324 20-411): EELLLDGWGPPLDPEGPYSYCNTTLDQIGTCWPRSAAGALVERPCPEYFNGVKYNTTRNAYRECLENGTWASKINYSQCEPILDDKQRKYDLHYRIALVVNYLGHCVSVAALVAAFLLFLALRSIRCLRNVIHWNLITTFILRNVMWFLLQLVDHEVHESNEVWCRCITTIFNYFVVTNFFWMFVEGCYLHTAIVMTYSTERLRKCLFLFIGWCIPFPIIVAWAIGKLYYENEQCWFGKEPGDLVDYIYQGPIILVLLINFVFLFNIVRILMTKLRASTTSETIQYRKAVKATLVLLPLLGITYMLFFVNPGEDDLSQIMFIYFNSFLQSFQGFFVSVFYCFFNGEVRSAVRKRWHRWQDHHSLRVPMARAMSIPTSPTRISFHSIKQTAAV

Binder	Emax (% I) [1] [%]	EC50 [nM] (cAMP) [2]	EC50 [1] [nM]
[NMeI]VLSLD[dV]PIKLK([γGlu-C16 diacid])KILLEQEKQKAQREQAETN[Api]QILAQV-NH2 (N-terminus assumed; SMILES CC[C@H](C)[C@H](NC)C(=O)N[C@H](C(=O)N[C@@H](CC(C)C)C(=O)N[C@@H](CO)C(=O)N[C@@H](CC(C)C)C(=O)N[C@@H](CC(=O)O)C(=O)N[C@@H](C(=O)N1CCC[C@H]1C(=O)N[C@H](C(=O)N[C@@H](CCCCN)C(=O)N[C@@H](CC(C)C)C(=O)N[C@@H](CCCCNC(=O)CC[C@H](NC(=O)CCCCCCCCCCCCCCC(=O)O)C(=O)O)C(=O)N[C@@H](CCCCN)C(=O)N[C@H](C(=O)N[C@@H](CC(C)C)C(=O)N[C@@H](CC(C)C)C(=O)N[C@@H](CCC(=O)O)C(=O)N[C@@H](CCC(N)=O)C(=O)N[C@@H](CCC(=O)O)C(=O)N[C@@H](CCCCN)C(=O)N[C@@H](CCC(N)=O)C(=O)N[C@@H](CCCCN)C(=O)N[C@@H](C)C(=O)N[C@@H](CCC(N)=O)C(=O)N[C@@H](CCCNC(=N)N)C(=O)N[C@@H](CCC(=O)O)C(=O)N[C@@H](CCC(N)=O)C(=O)N[C@@H](C)C(=O)N[C@@H](CCC(=O)O)C(=O)N[C@H](C(=O)N[C@@H](CC(N)=O)C(=O)NC1(C(=O)N[C@@H](CCC(N)=O)C(=O)N[C@H](C(=O)N[C@@H](CC(C)C)C(=O)N[C@@H](C)C(=O)N[C@@H](CCC(N)=O)C(=O)N[C@H](C(N)=O)C(C)C)[C@@H](C)CC)CCNCC1)[C@@H](C)O)[C@@H](C)CC)[C@@H](C)CC)C(C)C)C(C)C) [SEQ ID NO 154]	24	0.52	
[NMeI]VLSLD[dV]PIKLK([γGlu-C16 diacid])KILLEQEKQK[Aib]QREQAETN[Api]QILAQV-NH2 (N-terminus assumed; SMILES CC[C@H](C)[C@H](NC)C(=O)N[C@H](C(=O)N[C@@H](CC(C)C)C(=O)N[C@@H](CO)C(=O)N[C@@H](CC(C)C)C(=O)N[C@@H](CC(=O)O)C(=O)N[C@@H](C(=O)N1CCC[C@H]1C(=O)N[C@H](C(=O)N[C@@H](CCCCN)C(=O)N[C@@H](CC(C)C)C(=O)N[C@@H](CCCCNC(=O)CC[C@H](NC(=O)CCCCCCCCCCCCCCC(=O)O)C(=O)O)C(=O)N[C@@H](CCCCN)C(=O)N[C@H](C(=O)N[C@@H](CC(C)C)C(=O)N[C@@H](CC(C)C)C(=O)N[C@@H](CCC(=O)O)C(=O)N[C@@H](CCC(N)=O)C(=O)N[C@@H](CCC(=O)O)C(=O)N[C@@H](CCCCN)C(=O)N[C@@H](CCC(N)=O)C(=O)N[C@@H](CCCCN)C(=O)NC(C)(C)C(=O)N[C@@H](CCC(N)=O)C(=O)N[C@@H](CCCNC(=N)N)C(=O)N[C@@H](CCC(=O)O)C(=O)N[C@@H](CCC(N)=O)C(=O)N[C@@H](C)C(=O)N[C@@H](CCC(=O)O)C(=O)N[C@H](C(=O)N[C@@H](CC(N)=O)C(=O)NC1(C(=O)N[C@@H](CCC(N)=O)C(=O)N[C@H](C(=O)N[C@@H](CC(C)C)C(=O)N[C@@H](C)C(=O)N[C@@H](CCC(N)=O)C(=O)N[C@H](C(N)=O)C(C)C)[C@@H](C)CC)CCNCC1)[C@@H](C)O)[C@@H](C)CC)[C@@H](C)CC)C(C)C)C(C)C) [SEQ ID NO 155]	26	0.51	
Hexanoyl-VLSLD[dV]PIKLK([γGlu-C16 diacid])KILLEQEKQKKQREQAETN[Aib]QILAQV-NH2 (SMILES CCCCCC(=O)N[C@H](C(=O)N[C@@H](CC(C)C)C(=O)N[C@@H](CO)C(=O)N[C@@H](CC(C)C)C(=O)N[C@@H](CC(=O)O)C(=O)N[C@@H](C(=O)N1CCC[C@H]1C(=O)N[C@H](C(=O)N[C@@H](CCCCN)C(=O)N[C@@H](CC(C)C)C(=O)N[C@@H](CCCCNC(=O)CC[C@H](NC(=O)CCCCCCCCCCCCCCC(=O)O)C(=O)O)C(=O)N[C@@H](CCCCN)C(=O)N[C@H](C(=O)N[C@@H](CC(C)C)C(=O)N[C@@H](CC(C)C)C(=O)N[C@@H](CCC(=O)O)C(=O)N[C@@H](CCC(N)=O)C(=O)N[C@@H](CCC(=O)O)C(=O)N[C@@H](CCCCN)C(=O)N[C@@H](CCC(N)=O)C(=O)N[C@@H](CCCCN)C(=O)N[C@@H](CCCCN)C(=O)N[C@@H](CCC(N)=O)C(=O)N[C@@H](CCCNC(=N)N)C(=O)N[C@@H](CCC(=O)O)C(=O)N[C@@H](CCC(N)=O)C(=O)N[C@@H](C)C(=O)N[C@@H](CCC(=O)O)C(=O)N[C@H](C(=O)N[C@@H](CC(N)=O)C(=O)NC(C)(C)C(=O)N[C@@H](CCC(N)=O)C(=O)N[C@H](C(=O)N[C@@H](CC(C)C)C(=O)N[C@@H](C)C(=O)N[C@@H](CCC(N)=O)C(=O)N[C@H](C(N)=O)C(C)C)[C@@H](C)CC)[C@@H](C)O)[C@@H](C)CC)[C@@H](C)CC)C(C)C)C(C)C) [SEQ ID NO 156]	8	0.29	
Hexanoyl-VLSLD[dV]PIKLK([γGlu-C16 diacid])KILLEQEKQKKQREQAETN[Api]QILAQV-NH2 (SMILES CCCCCC(=O)N[C@H](C(=O)N[C@@H](CC(C)C)C(=O)N[C@@H](CO)C(=O)N[C@@H](CC(C)C)C(=O)N[C@@H](CC(=O)O)C(=O)N[C@@H](C(=O)N1CCC[C@H]1C(=O)N[C@H](C(=O)N[C@@H](CCCCN)C(=O)N[C@@H](CC(C)C)C(=O)N[C@@H](CCCCNC(=O)CC[C@H](NC(=O)CCCCCCCCCCCCCCC(=O)O)C(=O)O)C(=O)N[C@@H](CCCCN)C(=O)N[C@H](C(=O)N[C@@H](CC(C)C)C(=O)N[C@@H](CC(C)C)C(=O)N[C@@H](CCC(=O)O)C(=O)N[C@@H](CCC(N)=O)C(=O)N[C@@H](CCC(=O)O)C(=O)N[C@@H](CCCCN)C(=O)N[C@@H](CCC(N)=O)C(=O)N[C@@H](CCCCN)C(=O)N[C@@H](CCCCN)C(=O)N[C@@H](CCC(N)=O)C(=O)N[C@@H](CCCNC(=N)N)C(=O)N[C@@H](CCC(=O)O)C(=O)N[C@@H](CCC(N)=O)C(=O)N[C@@H](C)C(=O)N[C@@H](CCC(=O)O)C(=O)N[C@H](C(=O)N[C@@H](CC(N)=O)C(=O)NC1(C(=O)N[C@@H](CCC(N)=O)C(=O)N[C@H](C(=O)N[C@@H](CC(C)C)C(=O)N[C@@H](C)C(=O)N[C@@H](CCC(N)=O)C(=O)N[C@H](C(N)=O)C(C)C)[C@@H](C)CC)CCNCC1)[C@@H](C)O)[C@@H](C)CC)[C@@H](C)CC)C(C)C)C(C)C) [SEQ ID NO 157]	30	0.32	
Decanoyl-VLSLD[dV]PIKLK([γGlu-C16 diacid])KILLEQEKQKKQREQAETN[Aib]QILAQV-NH2 (SMILES CCCCCCCCCC(=O)N[C@H](C(=O)N[C@@H](CC(C)C)C(=O)N[C@@H](CO)C(=O)N[C@@H](CC(C)C)C(=O)N[C@@H](CC(=O)O)C(=O)N[C@@H](C(=O)N1CCC[C@H]1C(=O)N[C@H](C(=O)N[C@@H](CCCCN)C(=O)N[C@@H](CC(C)C)C(=O)N[C@@H](CCCCNC(=O)CC[C@H](NC(=O)CCCCCCCCCCCCCCC(=O)O)C(=O)O)C(=O)N[C@@H](CCCCN)C(=O)N[C@H](C(=O)N[C@@H](CC(C)C)C(=O)N[C@@H](CC(C)C)C(=O)N[C@@H](CCC(=O)O)C(=O)N[C@@H](CCC(N)=O)C(=O)N[C@@H](CCC(=O)O)C(=O)N[C@@H](CCCCN)C(=O)N[C@@H](CCC(N)=O)C(=O)N[C@@H](CCCCN)C(=O)N[C@@H](CCCCN)C(=O)N[C@@H](CCC(N)=O)C(=O)N[C@@H](CCCNC(=N)N)C(=O)N[C@@H](CCC(=O)O)C(=O)N[C@@H](CCC(N)=O)C(=O)N[C@@H](C)C(=O)N[C@@H](CCC(=O)O)C(=O)N[C@H](C(=O)N[C@@H](CC(N)=O)C(=O)NC(C)(C)C(=O)N[C@@H](CCC(N)=O)C(=O)N[C@H](C(=O)N[C@@H](CC(C)C)C(=O)N[C@@H](C)C(=O)N[C@@H](CCC(N)=O)C(=O)N[C@H](C(N)=O)C(C)C)[C@@H](C)CC)[C@@H](C)O)[C@@H](C)CC)[C@@H](C)CC)C(C)C)C(C)C) [SEQ ID NO 158]	54	0.04	98.7
[NMeV]LSLD[dV]PIKLK([γGlu-C16 diacid])KILLEQEKQKKQREQAETN[Aib]QILAQV-NH2 (N-terminus assumed; SMILES CC[C@H](C)[C@H](NC(=O)[C@H](CCC(N)=O)NC(=O)C(C)(C)NC(=O)[C@H](CC(N)=O)NC(=O)[C@@H](NC(=O)[C@H](CCC(=O)O)NC(=O)[C@H](C)NC(=O)[C@H](CCC(N)=O)NC(=O)[C@H](CCC(=O)O)NC(=O)[C@H](CCCNC(=N)N)NC(=O)[C@H](CCC(N)=O)NC(=O)[C@H](CCCCN)NC(=O)[C@H](CCCCN)NC(=O)[C@H](CCC(N)=O)NC(=O)[C@H](CCCCN)NC(=O)[C@H](CCC(=O)O)NC(=O)[C@H](CCC(N)=O)NC(=O)[C@H](CCC(=O)O)NC(=O)[C@H](CC(C)C)NC(=O)[C@H](CC(C)C)NC(=O)[C@@H](NC(=O)[C@H](CCCCN)NC(=O)[C@H](CCCCNC(=O)CC[C@H](NC(=O)CCCCCCCCCCCCCCC(=O)O)C(=O)O)NC(=O)[C@H](CC(C)C)NC(=O)[C@H](CCCCN)NC(=O)[C@@H](NC(=O)[C@@H]1CCCN1C(=O)[C@H](NC(=O)[C@H](CC(=O)O)NC(=O)[C@H](CC(C)C)NC(=O)[C@H](CO)NC(=O)[C@H](CC(C)C)NC(=O)[C@@H](NC)C(C)C)C(C)C)[C@@H](C)CC)[C@@H](C)CC)[C@@H](C)O)C(=O)N[C@@H](CC(C)C)C(=O)N[C@@H](C)C(=O)N[C@@H](CCC(N)=O)C(=O)N[C@H](C(N)=O)C(C)C) [SEQ ID NO 159]	4	2.97	
